This note sets out measurements from patent publication US20120039803A1, “PRETARGETING KIT, METHOD AND AGENTS USED THEREIN” (KONINKLIJKE PHILIPS ELECTRONICS N.V., priority 2009, published 2012).

This series relates to human colon cancer cell line LS174T. The settings on record: mouse, in vivo.

On to “Rtx-TCO: TCO-modified rituximab for control in vivo experiments; lacks specificity for TAG72”, for which the “tumor-to-blood ratio (T/B)” value came to 0.6±0.0 and the “tumor-to-muscle ratio (T/M)” value amounted to 4.9±0.8.
